Literature values in publication PMC3161823.

Molecular target: Complement factor H (Homo sapiens) (UniProt P08603)
Sequence (P08603 19-1231): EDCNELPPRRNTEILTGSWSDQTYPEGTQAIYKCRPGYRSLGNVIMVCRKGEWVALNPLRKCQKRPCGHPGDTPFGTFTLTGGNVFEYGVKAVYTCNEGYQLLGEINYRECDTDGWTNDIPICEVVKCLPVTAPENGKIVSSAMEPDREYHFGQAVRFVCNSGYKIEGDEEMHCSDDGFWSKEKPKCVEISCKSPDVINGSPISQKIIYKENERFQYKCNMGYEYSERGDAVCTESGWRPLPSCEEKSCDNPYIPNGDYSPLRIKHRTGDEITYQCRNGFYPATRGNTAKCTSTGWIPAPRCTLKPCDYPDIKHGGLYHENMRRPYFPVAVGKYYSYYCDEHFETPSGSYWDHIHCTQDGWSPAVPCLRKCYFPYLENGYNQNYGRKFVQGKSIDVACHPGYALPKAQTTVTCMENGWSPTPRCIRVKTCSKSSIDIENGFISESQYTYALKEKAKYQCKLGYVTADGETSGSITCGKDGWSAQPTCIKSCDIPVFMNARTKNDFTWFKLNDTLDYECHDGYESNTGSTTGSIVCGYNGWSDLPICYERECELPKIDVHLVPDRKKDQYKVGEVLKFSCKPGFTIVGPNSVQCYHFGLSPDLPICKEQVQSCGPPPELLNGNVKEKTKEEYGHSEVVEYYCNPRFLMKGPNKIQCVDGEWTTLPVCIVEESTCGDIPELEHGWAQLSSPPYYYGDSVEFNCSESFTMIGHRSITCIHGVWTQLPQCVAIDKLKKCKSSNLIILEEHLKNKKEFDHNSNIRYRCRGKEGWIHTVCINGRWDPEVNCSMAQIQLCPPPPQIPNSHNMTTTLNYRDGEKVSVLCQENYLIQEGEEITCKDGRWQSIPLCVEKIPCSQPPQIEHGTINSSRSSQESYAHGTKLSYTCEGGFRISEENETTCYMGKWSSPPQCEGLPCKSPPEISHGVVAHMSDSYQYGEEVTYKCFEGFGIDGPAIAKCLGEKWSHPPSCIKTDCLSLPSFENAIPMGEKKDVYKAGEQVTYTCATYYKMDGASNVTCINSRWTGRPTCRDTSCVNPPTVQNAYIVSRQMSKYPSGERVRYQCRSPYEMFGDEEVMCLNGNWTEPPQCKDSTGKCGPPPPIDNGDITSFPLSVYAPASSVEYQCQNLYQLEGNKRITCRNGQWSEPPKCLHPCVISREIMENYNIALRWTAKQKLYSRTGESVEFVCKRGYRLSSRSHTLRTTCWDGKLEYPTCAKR

PTX3, sequence (P26022 18-381): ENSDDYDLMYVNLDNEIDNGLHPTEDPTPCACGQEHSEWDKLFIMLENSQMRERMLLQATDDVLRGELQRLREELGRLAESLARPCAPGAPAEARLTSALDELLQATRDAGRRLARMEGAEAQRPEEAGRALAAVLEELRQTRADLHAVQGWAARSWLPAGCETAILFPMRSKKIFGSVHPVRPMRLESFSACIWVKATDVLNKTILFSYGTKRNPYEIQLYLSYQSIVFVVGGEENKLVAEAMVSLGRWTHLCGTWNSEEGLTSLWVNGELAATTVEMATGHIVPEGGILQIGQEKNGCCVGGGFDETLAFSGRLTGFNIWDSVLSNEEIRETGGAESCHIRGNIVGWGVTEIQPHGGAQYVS

Kd: 110 nM
Substance: PTX3 (from UniProt P26022)
